T1: MPDZ_12, O75970
T1 sequence (O75970 1857-1958, limits assumed, looked up): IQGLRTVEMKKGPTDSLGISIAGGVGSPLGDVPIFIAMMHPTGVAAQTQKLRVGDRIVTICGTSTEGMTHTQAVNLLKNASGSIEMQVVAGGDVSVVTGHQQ

T2: PTPN13_1, Q12923
T2 sequence (Q12923 1088-1188, limits assumed, looked up): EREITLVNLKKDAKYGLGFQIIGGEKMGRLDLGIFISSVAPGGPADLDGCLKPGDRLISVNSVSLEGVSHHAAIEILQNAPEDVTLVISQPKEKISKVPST

T3: LIN7A, O14910
T3 sequence (O14910 103-200, limits assumed, looked up): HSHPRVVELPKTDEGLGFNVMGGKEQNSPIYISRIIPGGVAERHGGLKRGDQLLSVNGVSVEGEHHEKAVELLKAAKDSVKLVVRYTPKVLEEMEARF

T4: PCLO, Q9Y6V0
T4 sequence (Q9Y6V0 4491-4600, limits assumed, looked up): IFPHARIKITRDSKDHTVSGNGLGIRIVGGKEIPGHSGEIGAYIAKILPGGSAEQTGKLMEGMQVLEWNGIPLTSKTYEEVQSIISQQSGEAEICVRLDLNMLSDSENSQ

T5: ARHGEF11, O15085
T5 sequence (O15085 42-136, limits assumed, looked up): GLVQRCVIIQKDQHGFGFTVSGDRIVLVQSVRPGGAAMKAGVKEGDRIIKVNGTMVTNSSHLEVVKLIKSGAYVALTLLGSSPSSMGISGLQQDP

T6: TX1BP3, O14907
T6 sequence (O14907 10-122, limits assumed, looked up): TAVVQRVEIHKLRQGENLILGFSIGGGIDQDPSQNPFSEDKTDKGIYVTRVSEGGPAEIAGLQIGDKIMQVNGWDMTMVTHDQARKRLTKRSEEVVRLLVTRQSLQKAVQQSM

T7: FRMPD1, Q5SYB0
T7 sequence (Q5SYB0 52-145, limits assumed, looked up): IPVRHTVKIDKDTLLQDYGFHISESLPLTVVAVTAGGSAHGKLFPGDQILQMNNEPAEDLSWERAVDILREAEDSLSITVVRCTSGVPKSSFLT

T8: SHANK1, Q9Y566
T8 sequence (Q9Y566 658-767, limits assumed, looked up): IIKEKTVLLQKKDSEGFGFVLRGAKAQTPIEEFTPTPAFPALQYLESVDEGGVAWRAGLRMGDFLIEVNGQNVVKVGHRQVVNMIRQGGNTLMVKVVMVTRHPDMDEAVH

T9: DLG3_2, Q92796
T9 sequence (Q92796 221-321, limits assumed, looked up): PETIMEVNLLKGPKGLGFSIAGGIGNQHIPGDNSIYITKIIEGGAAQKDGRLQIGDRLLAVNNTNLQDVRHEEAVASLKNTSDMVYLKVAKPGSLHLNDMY


Columns and labels:
Assay in all cases: holdup assay
Parameters in all cases: key: below the threshold = too weak to quantify, mostly under pKd 3.1 to 4
Conditions in all cases: plain residues with an end cap or a label only (N-terminal biotin on a linker: ado-ado)
PDZRN4_1, Q6ZMN7 = molecular target: PDZRN4_1, Q6ZMN7
MPDZ_12, O75970 = molecular target: T1, MPDZ_12, O75970
PTPN13_1, Q12923 = molecular target: T2, PTPN13_1, Q12923
LIN7A, O14910 = molecular target: T3, LIN7A, O14910
MAGI2_6, Q86UL8 = molecular target: MAGI2_6, Q86UL8
NHERF2_2, Q15599 = molecular target: NHERF2_2, Q15599
NHERF4_4, Q86UT5 = molecular target: NHERF4_4, Q86UT5
Inadl_10, Q8NI35 = molecular target: Inadl_10, Q8NI35
PCLO, Q9Y6V0 = molecular target: T4, PCLO, Q9Y6V0
GRID2IP_1, A4D2P6 = molecular target: GRID2IP_1, A4D2P6
DLG1_1, Q12959 = molecular target: DLG1_1, Q12959
Inadl_5, Q8NI35 = molecular target: Inadl_5, Q8NI35
LNX1_1, Q8TBB1 = molecular target: LNX1_1, Q8TBB1
GRASP, Q7Z6J2 = molecular target: GRASP, Q7Z6J2
ARHGEF11, O15085 = molecular target: T5, ARHGEF11, O15085
TX1BP3, O14907 = molecular target: T6, TX1BP3, O14907
GIPC2, Q8TF65 = molecular target: GIPC2, Q8TF65
FRMPD1, Q5SYB0 = molecular target: T7, FRMPD1, Q5SYB0
MAGI2_3, Q86UL8 = molecular target: MAGI2_3, Q86UL8
DLG5_1, Q8TDM6 = molecular target: DLG5_1, Q8TDM6
SHANK1, Q9Y566 = molecular target: T8, SHANK1, Q9Y566
PTPN3, P26045 = molecular target: PTPN3, P26045
Inadl_9, Q8NI35 = molecular target: Inadl_9, Q8NI35
GORASP2, Q9H8Y8 = molecular target: GORASP2, Q9H8Y8
DLG3_2, Q92796 = molecular target: T9, DLG3_2, Q92796
MAST2, Q6P0Q8 = molecular target: MAST2, Q6P0Q8
MAGI2_2, Q86UL8 = molecular target: MAGI2_2, Q86UL8
DLG2_3, Q15700 = molecular target: DLG2_3, Q15700
Inadl_1, Q8NI35 = molecular target: Inadl_1, Q8NI35
Sequence of Inadl_1, Q8NI35 (Q8NI35 113-229): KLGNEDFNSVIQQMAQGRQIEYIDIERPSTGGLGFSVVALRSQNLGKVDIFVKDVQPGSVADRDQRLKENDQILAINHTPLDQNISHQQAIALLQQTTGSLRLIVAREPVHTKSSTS

Sequence of Inadl_10, Q8NI35 (Q8NI35 1673-1763): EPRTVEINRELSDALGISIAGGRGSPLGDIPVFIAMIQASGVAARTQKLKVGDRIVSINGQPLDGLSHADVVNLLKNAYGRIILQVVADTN
Sequence of Inadl_5, Q8NI35 (Q8NI35 673-780): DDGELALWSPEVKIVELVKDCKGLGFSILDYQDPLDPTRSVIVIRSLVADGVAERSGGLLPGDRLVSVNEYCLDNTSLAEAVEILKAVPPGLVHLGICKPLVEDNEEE
Sequence of NHERF2_2, Q15599 (Q15599 142-238): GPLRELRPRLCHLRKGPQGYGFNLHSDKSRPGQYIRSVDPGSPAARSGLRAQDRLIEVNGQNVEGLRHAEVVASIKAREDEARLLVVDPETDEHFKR
Sequence of MAST2, Q6P0Q8 (Q6P0Q8 1099-1202): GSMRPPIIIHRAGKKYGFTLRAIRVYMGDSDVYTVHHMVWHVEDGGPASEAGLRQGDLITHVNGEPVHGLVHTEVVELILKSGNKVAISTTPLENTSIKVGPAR
Sequence of PDZRN4_1, Q6ZMN7 (Q6ZMN7 213-318): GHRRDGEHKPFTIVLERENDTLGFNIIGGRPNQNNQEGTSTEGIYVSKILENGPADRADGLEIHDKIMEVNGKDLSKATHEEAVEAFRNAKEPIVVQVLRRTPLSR
Sequence of LNX1_1, Q8TBB1 (Q8TBB1 261-371): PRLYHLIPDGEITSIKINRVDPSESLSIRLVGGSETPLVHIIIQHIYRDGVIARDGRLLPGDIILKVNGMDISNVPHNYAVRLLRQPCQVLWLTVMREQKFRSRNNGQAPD
Sequence of MAGI2_3, Q86UL8 (Q86UL8 600-682): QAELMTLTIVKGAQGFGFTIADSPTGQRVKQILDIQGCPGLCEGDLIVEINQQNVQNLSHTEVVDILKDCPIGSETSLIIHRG
Sequence of Inadl_9, Q8NI35 (Q8NI35 1530-1615): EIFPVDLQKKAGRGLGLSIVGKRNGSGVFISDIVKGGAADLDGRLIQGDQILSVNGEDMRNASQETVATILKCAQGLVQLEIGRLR
Sequence of GRID2IP_1, A4D2P6 (A4D2P6 1-87): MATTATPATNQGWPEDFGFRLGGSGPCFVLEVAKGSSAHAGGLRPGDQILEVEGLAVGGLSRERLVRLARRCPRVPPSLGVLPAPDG
Sequence of DLG5_1, Q8TDM6 (Q8TDM6 617-713): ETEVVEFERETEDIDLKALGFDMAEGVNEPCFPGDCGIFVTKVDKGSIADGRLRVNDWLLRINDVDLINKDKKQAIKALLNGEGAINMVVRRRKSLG
Sequence of MAGI2_2, Q86UL8 (Q86UL8 410-522): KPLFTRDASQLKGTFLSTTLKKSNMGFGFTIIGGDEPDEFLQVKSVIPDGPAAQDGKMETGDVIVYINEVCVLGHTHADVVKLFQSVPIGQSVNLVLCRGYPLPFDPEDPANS
Sequence of MAGI2_6, Q86UL8 (Q86UL8 1141-1229): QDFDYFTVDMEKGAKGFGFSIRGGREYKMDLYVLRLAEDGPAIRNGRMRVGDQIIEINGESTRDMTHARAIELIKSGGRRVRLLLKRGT
Sequence of PTPN3, P26045 (P26045 505-587): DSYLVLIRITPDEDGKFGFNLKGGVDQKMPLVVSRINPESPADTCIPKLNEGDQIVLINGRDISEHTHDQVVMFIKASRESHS
Sequence of GRASP, Q7Z6J2 (Q7Z6J2 96-193): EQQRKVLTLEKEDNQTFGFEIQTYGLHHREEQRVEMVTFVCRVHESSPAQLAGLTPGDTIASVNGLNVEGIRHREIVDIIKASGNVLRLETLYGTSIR
Sequence of NHERF4_4, Q86UT5 (Q86UT5 464-550): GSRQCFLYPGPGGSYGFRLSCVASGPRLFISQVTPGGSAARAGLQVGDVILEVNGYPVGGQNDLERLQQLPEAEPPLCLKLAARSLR
Sequence of GIPC2, Q8TF65 (Q8TF65 112-203): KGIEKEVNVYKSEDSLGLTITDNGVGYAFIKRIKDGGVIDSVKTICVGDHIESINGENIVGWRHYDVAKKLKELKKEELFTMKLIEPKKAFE

Binder	pKd (PDZRN4_1, Q6ZMN7)	pKd (MPDZ_12, O75970)	pKd (PTPN13_1, Q12923)	pKd (LIN7A, O14910)	pKd (MAGI2_6, Q86UL8)	pKd (NHERF2_2, Q15599)	pKd (NHERF4_4, Q86UT5)	pKd (Inadl_10, Q8NI35)	pKd (PCLO, Q9Y6V0)	pKd (GRID2IP_1, A4D2P6)	pKd (DLG1_1, Q12959)	pKd (Inadl_5, Q8NI35)	pKd (LNX1_1, Q8TBB1)	pKd (GRASP, Q7Z6J2)	pKd (ARHGEF11, O15085)	pKd (TX1BP3, O14907)	pKd (GIPC2, Q8TF65)	pKd (FRMPD1, Q5SYB0)	pKd (MAGI2_3, Q86UL8)	pKd (DLG5_1, Q8TDM6)	also measured
AKPSRISTVV [IQSEC2, Q5JU85]	below the threshold	3.49	below the threshold	below the threshold	below the threshold	below the threshold	below the threshold	below the threshold	below the threshold	below the threshold	4.81	4.21	4.34	4.41	4.59	3.76	below the threshold	below the threshold	3.55	below the threshold	pKd (SHANK1, Q9Y566): 3.96; pKd (PTPN3, P26045): 4.21; pKd (Inadl_9, Q8NI35): below the threshold; pKd (GORASP2, Q9H8Y8): 4.47; pKd (DLG3_2, Q92796): 5.33; pKd (MAST2, Q6P0Q8): 5.11; pKd (MAGI2_2, Q86UL8): 5.23; pKd (DLG2_3, Q15700): 4.34; pKd (Inadl_1, Q8NI35): below the threshold
PEYLGLDVPV [ERBB2, P04626]	3.52	below the threshold	below the threshold	below the threshold	below the threshold	below the threshold	below the threshold	below the threshold	below the threshold	below the threshold	below the threshold	below the threshold	3.58	below the threshold	3.83	4.19	below the threshold	below the threshold	3.5	below the threshold	pKd (SHANK1, Q9Y566): below the threshold; pKd (PTPN3, P26045): below the threshold; pKd (Inadl_9, Q8NI35): below the threshold; pKd (GORASP2, Q9H8Y8): below the threshold; pKd (DLG3_2, Q92796): 3.53; pKd (MAST2, Q6P0Q8): 4.21; pKd (MAGI2_2, Q86UL8): below the threshold; pKd (DLG2_3, Q15700): below the threshold; pKd (Inadl_1, Q8NI35): below the threshold
